B1: HIF1α-MAP-1 (protein)
chain: MRGSHHHHHHGSACELAATATATATATATAACGDLAPQMLRELQETNAALQDVRELLRQQVKEITFLKNTLLEIWKAAKEAAKEAAAKIEEQAKTFLDKFNGEELLRALDQVN
B2: H-MAP-2 (protein)
chain: MRGSPKKKRKVGGGGSHHHHHHHHGSACELAATATATATATATAACGDLAPQMLRELQETNAALQDVRELLRQQVKEITFLKNTLLEIWKAAKEAAKEAAAKIEEQAKTFLDKFNGEELLRALDQVN

Experiments:
[1] = target: p300; assay: ELISA binding to p300, total binding kinetics; conditions: for Kd: ELISA, average of three independent trials
Source text: FIG. 21. H-MAP1 (H-MAP) and H-MAP2 ELISA fitted with total binding kinetics using Prism 7 (GraphPad) with calculated binding affinities as an average of three independent trials.

[2] = tested on: HIF1α; assay: Hypoxia-inducible luciferase reporter in MDA-MB-231 cells; type: cell-based; conditions: MDA-MB-231-Luciferase cells, hypoxia induced with 100 μM CoCl2, increasing concentrations
Source text: FIG. 22. […] Results are normalized to maximum luciferase intensity of two independent trials.
We will further characterize the HIF1α-MAP1 and iterative HIF1α-MAP designs as described in the following section. For example, to increase the likelihood of translocation to the nucleus, HIF1α-MAP-2 (H-MAP-2) was designed by addition of nuclear localization sequence, PKKKRKV (SEQ ID NO:7), at the N-terminus. […] To test the ability of HIF1α-MAPs to modulate hypoxia-inducible signaling, HIF1α-MAP-2 was incubated with triple negative breast cancer cell line, MDA-MB-231, stably transfected a construct to express firefly luciferase under normoxic and hypoxic (induced with final concentration 100 μM CoCl2) conditions.

| Molecule | Kd [1] | fold improvement in comparison to native HIF1α ([1]; binding to p300) | expression of luciferase (hypoxia-inducible gene expression) [2] | expression of luciferase (hypoxia-inducible gene expression) ([2]; listed as HIF1α-MAP-2) |
| --- | --- | --- | --- | --- |
| native HIF1α [reference compound] | 0.38 nM | – | – | – |
| B1 | 0.00808 nM | 47 fold | – | – |
| B2 | 0.0382 nM | – | inhibitions of HIF1α | decreased expression of luciferase |

From US11892449B2, “Therapeutics and point of care lateral-flow test for virus and antibodies using tagged assembled proteins” (priority 2021, dated 2024)
